Source: the supplement of paper PMC11908140

B1: library; numbered along this chain (parent)
chain: MRKPRAAVGSGHRKQAASQEGRQKHAKNNSQAKPSACDGLARQPEEVVLQASVSSYHLFRDVAEVTAFRGSLLSWYDQEKRDLPWRRRAEDEMDLDRRAYAVWVSEVMLQQTQVATVINYYTGWMQKWPTLQDLASASLEEVNQLWAGLGYYSRGRRLQEGARKVVEELGGHMPRTAETLQQLLPGVGRYTAGAIASIAFGQATGVVDGNVARVLCRVRAIGADPSSTLVSQQLWGLAQQLVDPARPGDFNQAAMELGATVCTPQRPLCSQCPVESLCRARQRVEQEQLLASGSLSGSPDVEECAPNTGQCHLCLPPSEPWDQTLGVVNFPRKASRKPPREESSATCVLEQPGALGAQILLVQRPNSGLLAGLWEFPSVTWEPSEQLQRKALLQELQRWAGPLPATHLRHLGEVVHTFSHIKLTYQVYGLALEGQTPVTTVPPGARWLTQEEFHTAAVSTAMKKVFRVYQGQQPGTCMGSKRSQVSSPCSRKKPRMGQQVLDNFFRSHISTDAHSLNSAAQ

Variants of: B1
Assay: 8OG:A repair function score (normalized; synonymous = 0, nonsense = -1) (normalized log-likelihood score); higher = more repair activity (WT-like)
Conditions: with 8OG:A DNA repair reporter (GFP) in HEK-293 MUTYH KO cells
Outline: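 MUTYH knockout HEK-293 cells carrying lentiviral MUTYH cDNA NNN codon-scan libraries were grown with 10 pg/ml doxycycline and co-transfected with mCherry and a GFP reporter of 8OG:A repair. Viable mCherry+ cells were sorted at 72 h into GFP+ (repair) and GFP− bins, with three replicates per tile, and tile amplicons were sequenced. Rosace fitness scores for each tile were turned into a normalized repair function score anchored on the synonymous and nonsense distributions. Synonymous medians were set to 0 and nonsense medians to -1, and variants below 300 counts per million at the start were dropped.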

Variant | 8OG:A repair function score
Q363A | -0.167
E350T | 0.0414
E350S | 0.0422
E350N | -0.112
E350P | -1.12
E350A | -0.188
E350D | -0.304
E350M | 0.00868
E350C | -0.0435
E350Q | -0.13
E350L | -0.12
E350W | 0.0193
E350K | -0.17
E350F | -0.339
E350G | -0.128
E350V | -0.0826
E350R | -0.162
E350Y | -0.185
E350I | -0.103
L349K | -1.07
L349T | -0.236
L349N | -0.957
L349A | -0.352
L349C | -0.018

Variant | 8OG:A repair function score
L349R | -1.15
L349G | -1.03
L349F | -0.112
L349W | -0.668
L349M | 0.0308
L349P | -0.901
L349I | 0.0298
L349S | -0.842
L349Y | -0.257
L349D | -0.966
L349Q | -1.83
L349E | -0.993
L349V | -0.0456
L349H | -0.39
I359N | -0.425
I359H | -0.143
I359Y | -0.266
I359E | -0.818
I359P | -1.08
I359F | 0.0413
I359R | -0.51
I359C | -0.249
I359W | 0.0132
I359D | -0.946

Variant | 8OG:A repair function score
I359Q | -0.322
I359M | -0.00943
I359S | -0.465
I359T | 0.0861
I359L | 0.0476
I359A | -0.485
I359V | -0.0354
I359K | -0.27
I359G | -0.91
Q351L | -0.0629
Q351F | -0.101
Q351M | 0.0542
Q351H | 0.0225
Q351P | -0.756
Q351N | -0.125
Q351C | -0.0209
Q351D | -0.266
Q351R | 0.0269
Q351T | -0.0645
Q351G | -0.16
Q351Y | 0.023
Q351K | 0.044
Q351I | -0.0185
Q351E | -0.219

Variant | 8OG:A repair function score
Q351V | 0.000574
Q351A | -0.00592
Q351W | -0.0304
Q351S | -0.0771
V362P | -0.881
V362I | -0.125
V362D | -0.671
V362W | -0.624
V362N | -0.669
V362H | -0.608
V362K | -0.0434
V362A | -0.284
V362T | -0.028
V362F | -0.662
V362Q | -0.414
V362E | -0.932
V362M | -0.403
V362Y | -0.434
V362L | -0.0488
V362G | -0.901
V362C | -0.232
V362S | -0.406
V362R | -0.236
A354R | -0.0437

Variant | 8OG:A repair function score
A354G | -0.0387
A354S | -0.0885
A354T | -0.0601
A354H | -0.107
A354N | -0.255
A354V | 0.0356
A354Q | -0.0822
A354W | -0.0982
A354I | -0.0486
A354Y | -0.11
A354P | 0.0108
A354E | -0.0284
A354L | -0.0264
A354D | -0.0478
A354C | -0.078
A354M | -0.19
A354K | -0.061
A354F | -0.0389
L360Q | -0.916
L360P | -1.26
L360S | -1.32
L360W | -1.54
L360D | -1.19
L360M | -0.352

Variant | 8OG:A repair function score
L360V | -0.666
L360K | -1.23
L360E | -1.15
L360Y | -0.447
L360I | -0.403
L360C | -0.171
L360R | -1.17
L360N | -1.27
L360A | -0.845
L360T | -1.26
L360G | -0.95
L360H | -1.17
L360F | -0.195
V348Q | -1.64
V348H | -1.31
V348F | -0.996
V348M | -0.551
V348W | -1.28
V348I | -0.0535
V348E | -0.925
V348A | -0.589
V348S | -1.25
V348N | -1.04
V348K | -1.21

Variant | 8OG:A repair function score
V348P | -1.11
V348G | -1.15
V348T | -0.732
V348D | -1.83
V348Y | -1.02
V348L | -0.351
V348C | -0.104
V348R | -1.43
L361I | -0.107
L361Q | -0.666
L361A | -0.284
L361N | -0.575
L361F | -0.49
L361W | -0.755
L361V | -0.0292
L361Y | -0.508
L361M | 0.0584
L361D | -1.06
L361G | -0.729
L361P | -1.01
L361C | -0.101
L361E | -1.08
L361H | -1.22
L361T | -0.222

Variant | 8OG:A repair function score
L361S | -0.625
L361K | -0.984
L361R | -1.12
C347V | -0.045
C347R | -1.15
C347K | -1.08
C347Y | -0.846
C347W | -1.21
C347G | -0.229
C347M | -0.15
C347S | -0.457
C347F | -0.387
C347L | -0.18
C347D | -1.26
C347P | -1.08
C347T | -0.206
C347I | -0.0428
C347Q | -1.57
C347E | -1.34
C347N | -1.21
C347A | -0.0315
C347H | -1.55
P352A | -0.0351
P352Y | -0.175

Variant | 8OG:A repair function score
P352G | -0.0543
P352V | -0.096
P352I | -0.461
P352F | -0.188
P352L | -0.0502
P352E | -0.0129
P352R | -0.124
P352K | 0.00765
P352T | 0.0253
P352D | -0.0437
P352W | -0.38
P352S | -0.0991
A357V | -0.0294
A357N | 0.104
A357G | -0.0641
A357M | -0.0956
A357E | -0.0948
A357Q | 0.125
A357L | -0.0718
A357I | -0.0394
A357W | -0.104
A357F | -0.0934
A357C | 0.0134
A357P | 0.04

Variant | 8OG:A repair function score
A357R | -0.0515
A357K | -0.152
A357Y | -0.118
A357T | -0.0252
A357D | -0.193
A357H | -0.147
A357S | 0.0171
G356H | -0.148
G356D | -0.142
G356N | -0.277
G356I | -0.348
G356A | -0.11
G356S | -0.118
G356Q | 0.00571
G356M | -0.207
G356K | -0.0901
G356Y | -0.0505
G356R | -0.153
G356C | -0.0641
G356E | -0.141
G356L | -0.2
G356P | -0.0644
G356V | -0.13
G356F | -0.253

Variant | 8OG:A repair function score
G356T | -0.197
G356W | -0.0772
Q358A | -0.219
Q358M | -0.074
Q358N | -0.131
Q358T | 0.145
Q358L | 0.00809
Q358G | -0.334
Q358E | -0.0404
Q358W | -0.308
Q358P | 0.069
Q358D | -0.342
Q358Y | -0.283
Q358S | -0.152
Q358C | 0.0229
Q358I | -0.163
Q358H | -0.152
Q358F | -0.316
Q358R | 0.137
Q358K | 0.0561
Q358V | 0.112
A345N | -0.356
A345R | -0.408
A345F | -0.165

Variant | 8OG:A repair function score
A345I | 0.0369
A345Y | -0.126
A345H | -0.107
A345M | -0.102
A345K | -0.499
A345G | -0.243
A345W | -0.174
A345Q | -0.264
A345P | -0.334
A345L | -0.04
A345T | -0.111
A345V | 0.0157
A345S | -0.148
T346Y | -0.168
T346H | -0.35
T346I | 0.0144
T346L | -0.0228
T346P | -0.585
T346K | -0.886
T346V | 0.0305
T346G | -0.335
T346M | -0.125
T346E | -1.03
T346Q | -0.787

Variant | 8OG:A repair function score
T346W | -0.751
T346F | -0.247
T346S | -0.168
T346C | 0.0316
T346A | -0.0694
T346R | -0.56
T346D | -0.917
T346N | -0.262
L355H | -0.0638
L355E | 0.0516
L355T | 0.059
L355C | -0.0489
L355D | -0.182
L355S | -0.0259
L355A | 0.00558
L355F | -0.0288
L355K | -0.0816
L355P | -0.132
L355Y | 0.0403
L355N | 0.0266
L355V | -0.0573
L355W | -0.0689
L355Q | -0.061
L355R | -0.00513

Variant | 8OG:A repair function score
L355I | -0.0806
L355M | -0.0213
L355G | 0.0028
G353F | -0.0929
G353K | -0.127
G353C | -0.0857
G353V | -0.123
G353I | -0.129
G353E | -0.227
G353T | 0.0569
G353W | -0.099
G353R | -0.038
G353P | -0.17
G353Q | -0.109
G353N | -0.00787
G353L | -0.135
G353S | -0.0386
G353H | -0.144
G353M | -0.178
G353Y | -0.16
G353A | 0.00991
G353D | 0.0347
